How the values were obtained:
[1] = biological target: APP-TAP-AICD (human) (UniProt P05067); assay: streptavidin purification of APP-TAP-AICD from brain homogenate; iTRAQ 116/114, transgenic mouse 75 vs control mouse 72; MALDI-TOF/TOF
[2] = biological target: APP-TAP-AICD (human) (UniProt P05067); assay: streptavidin purification of APP-TAP-AICD from brain homogenate; LTQ-FT semiquantitative method, transgenic mouse 75 vs control mouse 72

probability that this protein is enriched [2] | Substance | iTRAQ ratio [1]
– | Heat shock protein HSP 90-alpha (HSP 86) (Tumor specific transplantation 86 kDa antigen) (from UniProt P07901 2-733) | 4.22
0.88 | Lrrk1 protein (Fragment), Q3UHC2 1-2014 | –
– | Syntaxin-1B2 (from UniProt P61264 1-288) | 4.57
0.87 | fructose-bisphosphate aldolase A homolog (Adult male testis cDNA, RIKEN clone 4933425L11 product) (enzyme) | –

Substance | probability that this protein is enriched [2] | iTRAQ ratio [1]
similar to heat shock protein 1, alpha isoform 1 | 1 | –

From patent US20100169988A1, “MEANS AND METHODS FOR ISOLATING AND DETERMINING NOVEL TARGETS FOR THE TREATMENT OF NEURODEGENERATIVE, NEUROLOGICAL OR NEUROPSYCHIATRIC DISORDERS AND COMPOSITIONS COMPRISING THE SAME” (priority 2006, published 2010)
